Usually EC50 stands for the midpoint of the concentration-response curve. As a reminder, the Kd is a measure of binding affinity in units of concentration. Low readings indicate a tighter complex, high ones a looser complex.

In test [1] the target is T1, Cyno P-cadherin on W319-CHOK1.cynoPro1.FL cells (cynomolgus, UniProt A0A2K5WPN9 108-829).
T1 construct: whole, on cells; also called cynomolgus P-cadherin; W391-CHOK1.cynoPro1.FL (transient)
The test is described as follows: FACS on CHOK1 cells transiently expressing cyno P-cadherin. The protocol: Binding of the test antibodies to P-cadherin expressed on cells was determined by flow cytometry analysis. […] 1×10⁵ cells/well (100 μL) were added to each well of a 96-well U-plate (Corning, #3799) and centrifuged at 1500 rpm (Eppendorf, #5810R) for 5 minutes before removing the supernatant. Antibodies serially diluted in 1% BSA/1×PBS (Ca+/Mg+) were added at 100 μL/well to the pelleted cells and incubated at 4° C. for 1 hour. Anon-related hIgG1 antibody was used as an isotype control. Cells were washed two times with 180 μL/well of 1% BSA/1×PBS (Ca+/Mg+) by centrifugation at 1500 rpm for 5 minutes at 4° C. Pelleted cells were resuspended in 100 μL/well Alexa647 conjugated Goat anti-human IgG Fc (Jackson, #109-605-098) 1:500 diluted in 1% BSA/1×PBS (Ca+/Mg+) for 30 minutes at 4° C. in the dark. Cells were then washed two times as described above. After the final wash, cells were resuspended in 100 μL 1% BSA/1×PBS (Ca+/Mg+) and fluorescence values were measured with a FACS Canto II cytometer (BD Biosciences). The amount of cell surface bound anti-P-cadherin antibody was assessed by measuring the mean fluorescence (MFI). The FACS raw data were analyzed by FlowJo software, wells containing no antibody or secondary antibody only were used to establish background fluorescence. […]
Binding of the test antibodies to cynomolgus P-cadherin expressed on cells was determined by flow cytometry analysis. […]

Test [2] addresses T2, Human P-cadherin on cells (human, UniProt P22223 108-829).
T2 construct: whole, on cells; Endogenous P-cadherin on tumour cell lines; also called hPro1
The test is described as follows: FACS affinity test on DU-145 cells. How it is done: Antibodies to be tested were serially diluted in 1×PBS/1% BSA and incubated with cells at 4° C. for 1 h. The plates were centrifuged and the supernatant was discarded. The cells were then incubated with Alexa647 conjugated goat anti-human IgG Fc (Jackson) at 4° C. in the dark for 30 min. After washing the cells were re-suspended in 100 μL 1×PBS/1% BSA, and fluorescence intensity was measured by flow cytometry (BD Canto II) and analyzed by FlowJo. The fluorescence intensity was converted to bound molecules/cell based on the quantitative beads standard curve (Quantum™ MESF Kits, Bangs Laboratories). KD was calculated by Graphpad Prism5.

In test [3] the target is T2, Human P-cadherin on cells. The test is described as follows: cell-based or functional assay.

T2 sequence (P22223 108-829): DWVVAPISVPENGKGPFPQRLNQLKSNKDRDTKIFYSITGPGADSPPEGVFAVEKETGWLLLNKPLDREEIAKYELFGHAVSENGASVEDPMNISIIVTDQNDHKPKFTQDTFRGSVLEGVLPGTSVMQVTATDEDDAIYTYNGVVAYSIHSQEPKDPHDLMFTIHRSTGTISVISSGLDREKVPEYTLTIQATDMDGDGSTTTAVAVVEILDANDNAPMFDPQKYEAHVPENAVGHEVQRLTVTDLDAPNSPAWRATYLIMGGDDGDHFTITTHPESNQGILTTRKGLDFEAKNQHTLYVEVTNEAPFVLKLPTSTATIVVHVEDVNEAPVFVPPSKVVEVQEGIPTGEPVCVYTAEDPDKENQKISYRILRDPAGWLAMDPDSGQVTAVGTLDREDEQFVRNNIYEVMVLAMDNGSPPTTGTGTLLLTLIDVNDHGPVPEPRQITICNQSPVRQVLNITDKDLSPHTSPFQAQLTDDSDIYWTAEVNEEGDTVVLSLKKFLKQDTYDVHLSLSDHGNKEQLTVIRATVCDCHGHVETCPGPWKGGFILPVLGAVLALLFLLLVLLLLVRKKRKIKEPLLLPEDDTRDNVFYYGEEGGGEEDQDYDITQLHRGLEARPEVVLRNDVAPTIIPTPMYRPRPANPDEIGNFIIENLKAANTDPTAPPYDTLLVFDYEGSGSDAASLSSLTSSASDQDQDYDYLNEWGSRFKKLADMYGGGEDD

B1: W3195-1.53.1-p1-uIgG1L (antibody)
heavy: not shown
light: SYELTQPPSVSVSPGQTAQITCSGDKLGDKFASWYQQKSGQSPVVVIYQDNKRPSGFPERFSGSNSGNTATLTISGTQAMDEADYYCQAWDSSIVVFGGGTKLTVLGQPKAAPSVTLFPPSSEELQANKATLVCLISDFYPGAVTVAWKADSSPVKAGVETTTPSKQSNNKYAASSYLSLTPEQWKSHRSYSCQVTHEGSTVEKTVAPTECS
notes: also called W3195-p1 antibody
B1 returned an EC50 in test [1] of 0.095 nM. In test [2], this molecule gave a Kd of 0.034 nM. Besides, in test [3], the “cell aggregation assay on DU-145, EC50” value is 0.39 nM and the “cell aggregation assay on DU-145, Max Fold change” value stood at 1.75 fold.

These data come from patent US20240034786A1 (WUXI BIOLOGICS IRELAND, published 2024).
